Patent US7456007

Legend:
[1] = target: Swedish mutant P13-P5′ peptide with P1′ aspartic acid replaced with a leucine (D→L), P05067
[2] = target: Swedish mutant P13-P5′ peptide with P1′ aspartic acid replaced with a valine (D→V), P05067
Chain of Swedish mutant P13-P5′ peptide with P1′ aspartic acid replaced with a valine (D→V), P05067 (P05067 whole entry, looked up, change not shown, tested part not stated): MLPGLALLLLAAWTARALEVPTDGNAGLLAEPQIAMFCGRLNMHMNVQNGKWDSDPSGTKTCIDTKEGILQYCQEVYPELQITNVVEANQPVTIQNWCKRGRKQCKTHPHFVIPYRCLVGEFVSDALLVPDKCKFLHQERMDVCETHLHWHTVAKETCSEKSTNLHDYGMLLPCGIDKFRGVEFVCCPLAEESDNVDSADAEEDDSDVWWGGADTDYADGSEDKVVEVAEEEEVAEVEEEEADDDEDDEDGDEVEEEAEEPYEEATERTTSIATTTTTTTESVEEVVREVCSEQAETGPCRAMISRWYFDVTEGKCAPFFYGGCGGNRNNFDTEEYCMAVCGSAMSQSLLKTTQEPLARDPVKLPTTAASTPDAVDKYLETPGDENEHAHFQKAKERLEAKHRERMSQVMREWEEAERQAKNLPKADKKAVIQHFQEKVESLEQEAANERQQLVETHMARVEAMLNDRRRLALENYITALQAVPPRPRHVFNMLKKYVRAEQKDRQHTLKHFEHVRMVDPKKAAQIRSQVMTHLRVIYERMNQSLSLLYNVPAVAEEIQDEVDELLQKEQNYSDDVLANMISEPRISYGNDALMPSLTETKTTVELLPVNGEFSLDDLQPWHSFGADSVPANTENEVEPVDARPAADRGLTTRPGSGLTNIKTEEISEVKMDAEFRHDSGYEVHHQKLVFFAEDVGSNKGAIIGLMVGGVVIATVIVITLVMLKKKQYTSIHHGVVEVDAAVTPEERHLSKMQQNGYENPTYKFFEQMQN

Chain of Swedish mutant P13-P5′ peptide with P1′ aspartic acid replaced with a leucine (D→L), P05067 (P05067 whole entry, looked up, change not shown, tested part not stated): as above

B1: naturally occurring β-secretase purified from human brain (protein)
chain: ETDEEPEEPGRRGSFVEMVDNLRGKSGQGYYVEMTVGSPPQTLNILVDTGSSNFAVGAAPHPFLHRYYQRQLSSTYRDLRKGVYVPYTQGKWEGELGTDLVSIPHGPNVTVRANIAAITESDKFFINGSNWEGILGLAYAEIARPDDSLEPFFDSLVKQTHVPNLFSLQLCGAGFPLNQSEVLASVGGSMIIGGIDHSLYTGSLWYTPIRREWYYEVIIVRVEINGQDLKMDCKEYNYDKSIVDSGTTNLRLPKKVFEAAVKSIKAASSTEKFPDGFWLGEQLVCWQAGTTPWNIFPVISLYLMGEVTNQSFRITILPQQYLRPVEDVATSQDDCYKFAISQSSTGTVMGAVIMEGFYVVFDRARKRIGFAVSACHVHDEFRTAAVEGPFVTLDMEDCGYNIPQTDESTLMTIAYVMAAICALFMLPLCLMVCQWRCLRCLRQQHDDFADDISLLK
[1]
  substrate concentration dependence of hydrolysis by brain β-secretase: show saturation at a lower concentration than the parent Swedish peptide
[2]
  substrate concentration dependence of hydrolysis by brain β-secretase: show saturation at a lower concentration than the parent Swedish peptide
